Test results taken from US11479601B2, “Antibodies specific to Sonic Hedgehog and method of use thereof” (The Regents of the University of California, priority 2016, dated 2022).

Key:
[1] = target: T1, full-length Shh polypeptide (Homo sapiens, UniProt Q15465); test: Flow cytometry: binding of C-terminal Shh antibodies to full-length Shh expressed in transfected cells; details: antibody at 1:10 (Commercial at 1:50)
T1 construct: Expression of full-length Shh polypeptide in transfected cells; expressed in transfected cells; pCMV-Shh plasmid (Origene)
Procedure: FACS (1:40). The secondary antibody was a donkey anti-mouse FITC-linked antibody (ab97029, 1:100, Abcam). For cell analysis after treatment assays (chemotherapy or GDC0449), a dead cell marker (SytoxRed, Invitrogen) was also used. For human fresh samples, an anti-CD45 APC-linked antibody (ab28106, 1:100, Abcam), and a dead cells marker (SytoxRed, Invitrogen) were added. For staining of stable transfected cell lines, mouse anti-HA antibody (Abcam, 1:100) and rabbit anti-FLAG antibody (Cell Signaling; 1:400) were used. Corresponding secondary antibodies were donkey anti-mouse AlexaFluor647 (Invitrogen, 1:1000) and donkey anti-rabbit AlexFluor594 (Invitrogen, 1:1000) antibodies. Flow cytometry analyses were performed on AccuriC6 flow cytometer (BD Biosciences), and FACS on FACSAria II (BD Biosciences). Flow analyses were based at least on 200,000 cells, and each test was made at least in triplicate. For all experiments, a negative control with cells processed without primary antibody was used. […]
Expression of full-length Shh polypeptide in transfected cells increased the percentage of cells labeled with the Shh antibodies produced by two of the subclones (2D9 and 2G4) identified after the screening, compared to the percentage of untransfected cells labeled by the same antibodies, as measured by flow cytometry (Table 3).

A549 cells = test: Viability of A549 cells treated with Shh antibodies ± GLI inhibitor 249C; type: cell-based, human; details: for Cell viability of A549 cells: 249C at 40 nM where added
Procedure: The effect of the C-terminal Shh antibodies from clones 2G4 and 2D9 on the viability of A549 cells was determined. A549 cells were exposed to increasing concentrations of the C-terminal Shh antibodies (2G4, 2D9), or antibodies against the N-terminal portion of Shh protein (6D3, 2E1), and the effective dose (ED50) was determined (assay 1: FIG. 16A; assay 2: FIG. 16B). […] Possibly due to the fact that very few cells express full-length Shh on the cell surface, the cytotoxic effect of the C-terminal Shh antibodies was not as potent as the cytotoxic effect of the N-terminal antibodies.
Next, the cytotoxicity of the C-terminal Shh antibodies was tested when the antibodies were used in conjunction with a small-molecule inhibitor of GLI zinc-finger transcription factor signaling, 249C (4-(5-chlorofuran-2-yl)-1,3-bis(2,4-difluorophenyl)-5-methyl-N-((4-methylmorpholin-2-yl)methyl)-4,5-dihydro-1H-pyrazole-5-carboxamide; Compound 135 above). A549 cells were exposed to varying concentrations of the C-terminal antibodies (2G4, 2D9) or the N-terminal antibodies (6D3, 2E1), in the presence or absence of a very low dose (40 nM) of 249C. (The IC50 of 249C in A549 cells is ˜70 nM.)

[2] = target: T2, cell-surface Sonic Hedgehog on A549 cells (Homo sapiens, UniProt Q15465); test: FACS of non-permeabilized A549 cells labeled with anti-Shh antibodies; type: binding; details: A549, without membrane permeabilization
T2 construct: recognize cell-surface expression of Sonic Hedgehog, A549 cells were labeled with in-house antibodies; endogenous in cells; host or cells: A549
Procedure: A549, 293T or 293T (+pCMV Shh) cells were labeled with Sonic Hedgehog (Shh) antibody (Abcam 53281, 1:100) or therapeutic test antibodies (1:100) for 1 hour at RT post serum blocking. Following two PBS washes, a FITC-conjugated secondary antibody (Abcam 97029, 1:100) or an Alexa-Fluor 647 (Invitrogen, 1:1000) was used to label cells. Samples were screened by flow cytometry using an Accuri™ C6 machine (BD Biosciences). For fluorescence activated cell sorting, samples were sorted using an S3e™ Cell Sorter (Bio-Rad) and the Shh+ population was collected. For all experiments, cells processed without primary antibody served as a negative control. Experiments were performed in duplicates or triplicates.
To corroborate that the two anti-Shh antibodies, 1C11-2G4 and 1C11-2D9, recognize cell-surface expression of Sonic Hedgehog, A549 cells were labeled with in-house antibodies and sorted via Fluorescence Activated Cell Sorting (FACS) without membrane permeabilization. […] BMC Cancer. 15:84 (2015); Singh S, Trevino J, Bora-Singhal N, Coppola D, Haura E, Altiok S, Chellappan S P. EGFR/Src/Akt signaling modulates Sox2 expression and self-renewal of stem-like side-population cells in non-small cell lung cancer. Mol Cancer. 11:73 (2012); Cochrane C R, Szczepny A, Watkins D N, Cain J E. Hedgehog Signaling in the Maintenance of Cancer Stem Cells. Cancers (Basel). […]

NSCLC A549 cells = test: CellTiter-Glo cell viability assay, A549; type: cell-based, human; details: 96 hours, compared with controls
Procedure: (§1) Logarithmically growing cells were plated in antibiotic-free medium supplemented with 2% fetal bovine serum at a density of 5,000 cells per well in clear-bottom 96-well plates. The next day cells were treated (triplicates) with increasing doses of in-house therapeutic antibodies (reconstituted in PBS) or PBS controls for 96 hours and subsequently assessed for cell viability by measuring ATP content with CellTiter-Glo Luminescent Cell Viability Assay (Promega). Signal intensity was measured on a Glomax™ 96 Microplate Luminometer (Promega) and percent cell survival was calculated based on the reading of PBS control cells set as 100%.

[3] = system: other lung and pancreatic cancer cell lines; test: CellTiter-Glo cell viability assay, other cancer cell lines; type: cell-based; details: 96 hours
Procedure: as §1

B1: 2G4: purified mouse monoclonal C-terminal Shh antibody from hybridoma sub-clone 2G4 of clone 1C11, IgG1 kappa (antibody, V domains shown)
VH: EVKLVESGGGLVKPGGSLKLSCAASGFTFSSYTMSWVRQTPAKRLEWVATISSGGGNTYYPDSVKGRFTISRDNARNTLYLQMSSLRSEDTAMYYCARDYRSLFAYWGQGTLVTVSA
VL: QIVLTQSPAIMSASPGEKVTITCSASSSVSYMHWFQQKPGTSPKLWIYSTSNLASGVPARFSGSGSGTSYSLTISRMEAEDAATYYCQQRSSYPFTFGSGTKLEIK
**Q.** Which “percentage of cells labeled with the Shh antibody (flow cytometry)” value ([1]; +SHh Full-Length transfection) does the source give for B1 here?
**A.** Its value is 2.24%.

**Q.** And the “percentage of cells labeled with the Shh antibody (flow cytometry)” value ([1]; No transfection)?
**A.** The value was 0.17%.

**Q.** What about the “Cell viability of A549 cells” value (A549 cells; Ab conc. 32 ng/mL) of the same molecule?
**A.** The value was 99%.

**Q.** What about the “Cell viability of A549 cells” value (A549 cells; Ab conc. 64 ng/mL) of the same molecule?
**A.** The value was 95%.

**Q.** What about the “Cell viability of A549 cells” value (A549 cells; Ab conc. 128 ng/mL) of the same molecule?
**A.** Its value is 91%.

**Q.** What about the “synergy with a GLI inhibitor in reducing viability of non-small cell lung cancer cells” value (A549 cells; with 249C at 40 nM) of the same molecule?
**A.** The value was “act synergistically”.

**Q.** What about the “Shh+ cells recognized from a mixed population (FACS)” value [2] of the same molecule?
**A.** Its value is 0.11%.

**Q.** What about the “A549 tumor cell proliferation / cell viability” value (NSCLC A549 cells) of the same molecule?
**A.** The value was “marginally stronger anti-proliferative capacity”.

**Q.** And the “growth of other lung and pancreatic cancer cell lines” value [3]?
**A.** Its value is “inhibited the growth”.
